*1 amine or outer side, *2 acyl side, *3 side chain or, on linkers, in order; H or OH if unused. Where a SMILES comes first, the peptide text is derived from it. Bridges are numbered along the chain shown (N, C = ends). Roman numbers before positions name the chains, in order. [ ]: non-standard residue; d: D form. Actinocin(9to1) = Cc1c2oc3c(C)ccc(C(=O)[*:1])c3nc-2c(C(=O)[*:2])c(N)c1=O; NMeV = CN[C@H](C(=O)O)C(C)C; Sar = CNCC(=O)O
What was measured:
[1] = tested on: latently HIV-1 infected J89GFP T cells; test: HIV-1 reactivation / priming in latently HIV-1 infected J89GFP T cells (GFP, flow cytometry, HTS); format: cell-based
Procedure: Flow cytometry. Infection levels in the cell cultures were monitored by flow cytometric (FCM) analysis of GFP expression. […] Cell sorting experiments were performed using a FACSAria™ Flow Cytometer (Becton&Dickinson). Data analysis was performed using either CellQuest (Becton&Dickinson) or GUAVA Express (GUAVA Technologies, Inc.).

NF-κB p50 [2] = test: NF-κB p50 activity in nuclear extracts of Jurkat cells (TransAM NF-κB family ELISA); format: cell-based
Procedure: (§1) FIGS. 7A-7D are graphs showing the kinetics of HRF-mediated induction of NF-κB activity. Jurkat or latently HIV-1 infected CA5 T cells were stimulated with optimal concentrations of PMA and HRF, and cells were harvested at the indicated time points. Nuclear extracts were generated and (FIGS. 7A and 7C) NF-κB p50 activity and (FIGS. 7B and 7D) NF-κB p65 activity were determined using the TransAM™ NF-κB family ELISA kit (Active Motif; Carlsbad, Calif.).
(§2) Cells were grown in RPMI medium supplemented with 10% FBS and 1% PSG to approximately 5×10^5 cells per milliliter. Cells were centrifuged and resuspended in fresh pre-warmed medium. PMA, HRF and/or JNKiV were added immediately at the indicated concentrations. The final cell density for the assay was 1×10^6 cells per milliliter. The culture flasks were kept in a humidified CO2 incubator at 37° C. For each time point, a 1 ml cell suspension was removed and immediately centrifuged at full speed in a tabletop centrifuge for 30 seconds. […] The protein concentration of the extracts was determined by using the BCA protein assay Kit (ThermoFisher). […] The absorbance at 595 nm was determined using a 96 well plate reader (Synergy HT, BIO-Tek; Winooski, Vt.).
(§3) NF-κB activity in nuclear extracts was quantified using the TransAM™ NF-κB family ELISA kit from Active Motif, Inc. (Carlsbad, Calif.) according to the manufacturer's instructions.

HIV-1 LTR = test: Tat-independent activation of integrated LTR-GFP construct in NOMI reporter T cells; format: cell-based; settings: 24 hours
Procedure: FIGS. 6A-6C show HRF triggers suboptimal functional induction of NF-κB dependent gene expression. […] The HIV-1 reactivating kinetics were determined by stimulating CA5 T cells with optimal concentrations of HRF, phorbol 12-myristate 13-acetate (PMA) and tumor necrosis factor-α (TNF-α) and analyzing HIV-1 reactivation as a function of EGFP-expression over a period of 48 hours. Data for all agents are depicted as the percentage of EGFP-positive cells in the total cell population. […] To test the ability of HRF to mediate Tat-independent activation of the HIV-1 LTR, NOMI cells (HIV-1 reporter cell line with an integrated LTR-EGFP construct) were stimulated with increasing concentrations of PMA (0.01-10 ng/ml), TNF-α (0.003-30 μg/ml) and HRF supernatant (0.3-100 μl). The level of LTR-induction was then measured as EGFP-expression detectable after 24 hours as determined by flow cytometric analysis. Arrows indicate the concentrations at which the respective stimulus would have triggered full HIV-1 reactivation in the latently HIV-1 infected CA5 T cell line. […] 293T cells were transfected with several NF-κB dependent promoter constructs and then stimulated with either TNF-α (10 μg/ml) or HRF (25 μl). Promoter induction was measured as total EGFP expression. (NF-κB:pNF-κB-d2EGFP; LTR:HIV-1 LTR-GFP; IL-8:pIL-8 GFP; TNF:human TNF-GFP; MSCV:murine stem cell virus LTR driven GFP; no NF-κB responsive elements).
As the NF-κB pathway has been recognized as vital to HIV-1 activation, the ability of HRF to trigger NF-κB activation was investigated. It was initially determined that HRF had the ability to stimulate Tat independent activation of an integrated LTR-GFP construct in NOMI reporter T cells.

NF-κB p50 [3] = test: NF-κB p50 activity in nuclear extracts of latent CA5 T cells (TransAM NF-κB family ELISA); format: cell-based
Procedure: as §1, §2, §3

IL-8, TNF-α, and IFN-γ = test: Cytokine secretion by PBMCs (BioPlex analysis); format: cell-based, human; settings: 24 hours
Procedure: FIGS. 8A-8C show HRF induced NF-κB and cytokine expression in peripheral blood mononuclear cells (PBMCs). […] PBMCs were activated with optimal concentrations of either PHA-L or with HRF. Cells were harvested at the indicated time points. Nuclear extracts were generated and NF-κB p50 activity and NF-κB p65 activity were determined using the TransAM™ NF-κB family ELISA kit (Active Motif). […] PBMCs from four different healthy donors were stimulated with an anti-CD3/CD28 antibody combination and infected with a GFP reporter virus on day 4 post-stimulation. HIV-1 replication was monitored in the absence (C) or presence of HRF for 5 days and the achieved HIV-1 infection levels were determined by flow cytometric analysis for the percentage of EGFP-positive cells. […] Culture supernatants were collected after 24 hours and the concentrations of a panel of cytokines was determined by BioPlex analysis. […]
Following stimulation of the peripheral blood mononuclear cells (PBMCs) with PHA-L or HIV-1 reactivating factor (HRF), supernatant samples were collected at time points between 12 and 48 hours post stimulation. […] Therefore, cytokine levels in culture supernatant samples from all donors were determined at the 24 hour time point using a customized Milliplex mAP kit for the simultaneous analysis of six human cytokines (IL-2, IL-4, IL-6, IL-8, TNF-α and IFN-γ). […]

Cc1c2oc3c(C)ccc(C(=O)N[C@@H]4C(=O)N[C@H](C(C)C)C(=O)N5CCC[C@H]5C(=O)N(C)CC(=O)N(C)[C@@H](C(C)C)C(=O)O[C@@H]4C)c3nc-2c(C(=O)N[C@@H]2C(=O)N[C@H](C(C)C)C(=O)N3CCC[C@H]3C(=O)N(C)CC(=O)N(C)[C@@H](C(C)C)C(=O)O[C@@H]2C)c(N)c1=O [dactinomycin] (I: T[dV]P[Sar][NMeV] / II: T[dV]P[Sar][NMeV]; ester I:1-I:C, II:1-II:C; linker I:N-II:N via Actinocin(9to1))
priming of latent HIV-1 infection for reactivation ([1]; in combination with sub-optimal TNF-α): potently primed latent HIV-1 infection for reactivation
HIV-1 reactivating capacity by itself ([1]; relative to latently infected control cells): did not exhibit HIV-1 reactivating capacity by itself

B1: HRF: flagellin polypeptide from Massilia timonae (SEQ ID NO:10), used as bacterial culture supernatant (protein)
chain: MASVINTNVPSLNSQRNLSTSQAQLNTSIQRLSSGMRINSAKDDAAGLAISDRMNSQIKGMTQATRNANDGVSMAQTAEGALSSSGDILQRIRELAVQSSNSSNSASDRKALQTEVTQLSSELNRIANTTEFNGQKLMDGTLGTANFQVGANAGQLISMTGANFNTSVYGNNQIAGDAAKAAATTSAAATGAFTISGYLGTSAAINTTDADTAKTIAASINNVTGDTGVTATARTDSFLKSAGGAHTMSLASDNSGTGEAVDISFTVGDGGDTADDYAAAISAFNAQTAKTGVTAEYDAVEKGLKLTNSAGENISLTNKAGSADIDMDTYAADGALMASALTLEAGDVGVANGRVTMDSEKSFSVAEGTDTGFELADSSALKSVAKIDISDFEGAQEAIKVADAALSAVNSQRAEYGALQSRFESAISNLSSSTENLSASRSRIVDTDFAAETAKMTRGQILQQAGTSMLAQANSLPNGVLSLLRG
NF-κB p50 activation amplitude compared to PMA stimulation (NF-κB p50 [2]; Jurkat cells): ~3 fold
duration of induced NF-κB activity in comparison to PMA (NF-κB p50 [2]; parental Jurkat T cells): less sustained
Tat-independent activation of integrated LTR-GFP construct (GFP expression) (HIV-1 LTR): modest increase in GFP expression
NF-κB p50 activity after the first 4 hours (NF-κB p50 [3]): stabilizes at an elevated level
pro-inflammatory cytokine secretion (IL-8, TNF-α, and IFN-γ) (IL-8, TNF-α, and IFN-γ): did not induce meaningful levels
